Data as given in patent publication US20230416410A1 (ZOETIS SERVICES, published 2023).

Tests used:
Assay in all cases: SPR Biacore, biotinylated receptor on SA sensor, pH 7.4, 15 C
CTLA4 Fc bIgG1aWin = target: T1, CTLA4 Fc bIgG1aWin (canine; bovine, UniProt Q9XSI1 36-161, limits assumed)
T1 construct: No linker
T1 sequence: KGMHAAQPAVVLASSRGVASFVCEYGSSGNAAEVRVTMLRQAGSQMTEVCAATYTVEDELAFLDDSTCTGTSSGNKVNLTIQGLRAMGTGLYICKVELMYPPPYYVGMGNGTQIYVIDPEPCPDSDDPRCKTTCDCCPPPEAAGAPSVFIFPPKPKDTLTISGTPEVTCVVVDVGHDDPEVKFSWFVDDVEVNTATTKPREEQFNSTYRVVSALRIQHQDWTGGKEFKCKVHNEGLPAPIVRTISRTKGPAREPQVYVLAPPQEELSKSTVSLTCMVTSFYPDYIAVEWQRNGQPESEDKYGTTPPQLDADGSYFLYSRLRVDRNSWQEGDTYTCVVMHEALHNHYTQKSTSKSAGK
Protocol: (§1) A Biacore SPR binding assay was designed to test the affinity of bovine IgG subclasses to bFcgR1, bFcgR2 and bFcgR3. All reported KD's were measured by Biacore (Cytiva, Marlborough, MA, USA) using series S SA sensor. Biotinylated-bovine FcgR1, R2 and R3 were captured on the sensor surface using a modified SA capture method to reach the desired surface density. 10 mM HEPES, 150 mM NaCl, 3 mM EDTA, 0.05% v/v surfactant P20, pH7.4 buffer was used as the running and titration buffer. Various concentrations of bovine CTLA4-Fc fusions or mAbs were titrated and flowed over the receptor surface and affinities were determined using Biacore T200 Evaluation software (Cytiva, Marlborough, MA, USA) with 1:1 binding model. The method of double referencing has been applied where the reference flow cell was subtracted from the flow cell containing immobilized receptors and blank runs containing buffer only were subtracted out from all runs. Flow cells were regenerated using 10 mM Glycine pH1.5. Runs were performed at 15° C.
(§2) The ability to knock out binding to bovine Fc gamma receptors was evaluated by comparing SPR Biacore bFcgR affinity of bIgG1a and bIgG1b wildtype Fc to the bIgG1a and bIgG1b mutations, described above. All mutations made to bIgG1 are identical for the a and b allotypes. Biacore methods for bFcgR1, R2, and R3 were performed as described in Example 1.

CTLA4 Fc bIgG1aSAS = target: T2, CTLA4 Fc bIgG1aSAS (canine; bovine, UniProt Q9XSI1 36-161, limits assumed)
T2 construct: No linker
T2 sequence: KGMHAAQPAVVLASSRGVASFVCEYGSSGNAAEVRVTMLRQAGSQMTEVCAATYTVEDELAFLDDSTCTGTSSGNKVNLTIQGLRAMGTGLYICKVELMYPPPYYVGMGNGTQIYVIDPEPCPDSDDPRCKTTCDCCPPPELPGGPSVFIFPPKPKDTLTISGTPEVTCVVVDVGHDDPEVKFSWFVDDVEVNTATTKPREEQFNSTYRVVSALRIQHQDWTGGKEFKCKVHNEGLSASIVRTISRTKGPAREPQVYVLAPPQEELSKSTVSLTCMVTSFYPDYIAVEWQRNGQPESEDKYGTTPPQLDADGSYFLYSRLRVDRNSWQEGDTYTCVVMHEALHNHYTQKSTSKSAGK
Protocol: as §1, §2

CTLA4 Fc bIgG1aSAP = target: T3, CTLA4 Fc bIgG1aSAP (canine; bovine, UniProt Q9XSI1 36-161, limits assumed)
T3 construct: No linker
T3 sequence: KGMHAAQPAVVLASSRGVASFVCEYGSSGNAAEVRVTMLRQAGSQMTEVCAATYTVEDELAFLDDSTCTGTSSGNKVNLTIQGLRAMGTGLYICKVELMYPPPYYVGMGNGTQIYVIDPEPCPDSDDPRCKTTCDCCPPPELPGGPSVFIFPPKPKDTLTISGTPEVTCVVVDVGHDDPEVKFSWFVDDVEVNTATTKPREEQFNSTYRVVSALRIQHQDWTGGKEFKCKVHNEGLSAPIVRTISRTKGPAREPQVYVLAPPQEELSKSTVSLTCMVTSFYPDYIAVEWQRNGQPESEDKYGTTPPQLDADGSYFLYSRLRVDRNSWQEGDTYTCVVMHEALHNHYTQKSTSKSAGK
Protocol: as §1, §2

CTLA4 Fc bIgG1a = target: T4, CTLA4 Fc bIgG1a (canine; bovine, UniProt Q9XSI1 36-161, limits assumed)
T4 construct: No linker; also called bIgG1a wildtype; CTLA4 Fc bIgG1a wildtype
T4 sequence: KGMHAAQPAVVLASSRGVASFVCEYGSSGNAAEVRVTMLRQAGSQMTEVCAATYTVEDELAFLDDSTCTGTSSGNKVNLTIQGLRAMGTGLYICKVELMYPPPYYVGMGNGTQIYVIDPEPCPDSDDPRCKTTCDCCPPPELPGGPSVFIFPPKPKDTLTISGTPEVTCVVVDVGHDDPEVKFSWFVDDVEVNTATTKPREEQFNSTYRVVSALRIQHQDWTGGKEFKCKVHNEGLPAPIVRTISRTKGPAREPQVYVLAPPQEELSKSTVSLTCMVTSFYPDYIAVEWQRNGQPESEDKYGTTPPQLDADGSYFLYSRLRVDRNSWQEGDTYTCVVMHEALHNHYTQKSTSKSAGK
Protocol: as §1, §2

CTLA4 Fc bIgG1aWinSAS = target: T5, CTLA4 Fc bIgG1aWinSAS (canine; bovine, UniProt Q9XSI1 36-161, limits assumed)
T5 construct: No linker
T5 sequence: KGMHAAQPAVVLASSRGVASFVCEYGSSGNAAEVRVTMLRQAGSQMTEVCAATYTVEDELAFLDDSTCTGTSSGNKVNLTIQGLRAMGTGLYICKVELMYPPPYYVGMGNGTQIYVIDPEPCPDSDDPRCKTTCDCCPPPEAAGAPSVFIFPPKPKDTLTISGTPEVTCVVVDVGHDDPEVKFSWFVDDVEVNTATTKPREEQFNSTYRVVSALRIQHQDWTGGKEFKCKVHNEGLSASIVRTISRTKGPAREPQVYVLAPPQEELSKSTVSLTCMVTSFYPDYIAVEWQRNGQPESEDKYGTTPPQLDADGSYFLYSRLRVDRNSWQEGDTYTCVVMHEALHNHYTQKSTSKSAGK
Protocol: as §1, §2

B1: recombinant bovine FcgR2 (receptor)
chain: KPDLPKAVVTIQPAWINVLREDHVTLTCQGTSFSAGNLTTWFHNGSSIHTQKQPSYSFRAGSNDSGSYRCQREQTSLSDPVHLDVISDWLLLQTPSLVFQEGEPIMLRCHSWRNQPLNKITFYQDRKSKIFSYQRTNFSIPRANLSHSGQYHCTAFIGKMLHSSQPVNITVQESSSSGPSSMTHHHHHHAGLNDIFEAQKIEWHE
modifications: biotin on the BAP tag (BirA)
notes: also called bFcgR2; bFcgRII
For B1, the Kd (CTLA4 Fc bIgG1aWin) was 2.79 nM, the binding result (CTLA4 Fc bIgG1aSAS) was “no binding” and the binding result (CTLA4 Fc bIgG1aSAP) was “no binding”. For the same binder, the Kd (CTLA4 Fc bIgG1a) was 3.37 nM and the binding result (CTLA4 Fc bIgG1aWinSAS) was “no binding”.

B2: recombinant bovine FcgR3 (receptor)
chain: DTQTADPSKAVVLLDPQWNHVLTNDRVTLKCQGDYPVEDNSTKWWHNGTLISSQTPSYFIADVKVQDSGEYKCQTGLSAPSDPVKLEVHVGWLLLQVAQRVVNVGKPIRLKCHSWKKTPVAKVQYFRNGRGKKYSHGNSDFHIPEAKLEHSGSYFCRGIIGSKNESSESVQITVQAPETLQTVSSFFLPWHQHHHHHHAGLNDIFEAQKIEWHE
modifications: biotin on the BAP tag (BirA)
notes: also called bFcgR3; bFcgRIII
B2: no binding (CTLA4 Fc bIgG1aWin); no binding (CTLA4 Fc bIgG1aSAS); no binding (CTLA4 Fc bIgG1aSAP). For the same binder, the Kd (CTLA4 Fc bIgG1a) was 14.3 nM and the binding result (CTLA4 Fc bIgG1aWinSAS) was “no binding”.
